From the emibetuzumab library of Makowski et al. (2022)

B1: VH:VL chains; a variant is named by its letters at X, in order (parent)
chain 1: QVQLVQSGAEVKKPGASVKVSCKASGYTFTDYXMHWVRQAPGQGLEWMGXVNPNXXXTTYNQKFEGRVTMTTDTSTSTAYMELRSLRSDDTAVYYCARXNXLDXWGQGTTVTVSS
chain 2: DIQMTQSPSSLSASVGDRVTITCSVSSSVSSIYLHWYQQKPGKAPKLLIYSTSNLASGVPSRFSGSGSGTDFTLTISSLQPEDFATYYCQVYSGYPLTFGGGTKVEIK

Variants of: B1
Assay: yeast display scFab, FACS + sequencing
In short: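 Non-specific binding was called from deep sequencing of sorted yeast cells displaying a heavy-chain CDR mutant scFab library. Cells labelled with anti-Myc and biotinylated ovalbumin (260 μg/mL in PBSB, 3 h, room temperature) or soluble membrane proteins (130 μg/mL, 20 min on ice) were FACS-sorted, collecting the top 25% and bottom 10% of binders from two replicates. A sequence was positive when present in ≥3 of 4 pooled positive samples and absent from all negatives, and negative under the converse rule.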

Variant | non-specific binding call
YKGKGDGD | binds
SKGKGAGD | binds
SKGKGAGF | binds
VKGAGSVV | no binding
YKGGDDLA | no binding
FKGKGALD | binds
YKERASGV | binds
YKGEGDLV | no binding
YKGEGDLA | no binding
FKGRGAGS | binds
YKGRDDVA | no binding
FKGEGDVA | no binding
FKGEGDVY | no binding
FKGKGAGD | binds
YKGKGSLD | binds
YKGKGSLA | binds
YKGKGSLY | binds
YKGKGSLF | binds
VKGEGDVY | no binding
VKGKGDAV | no binding
SKGRGAGS | binds
VKGKDSGD | binds
FKGEDAVA | no binding
FKGEGAAD | no binding

Variant | non-specific binding call
AKERGDGV | no binding
YKGKGDAD | binds
VKERGDGV | no binding
AKGGGDVV | no binding
SKGKGSWD | binds
VKGKGAAF | binds
YKETGYAV | binds
DKGGAVWT | no binding
YKGADFGD | binds
YKGKGAGS | binds
YKGKGAGF | binds
SKGGSAWD | binds
VKGRADWY | no binding
VKGRADWD | no binding
VKGRADWV | no binding
VKGRADWA | no binding
VKGRADWF | no binding
DKGGAAGD | no binding
SKGKGAVA | binds
VKGASDVV | no binding
VKGASDVA | no binding
YKGGSSAA | binds
YKGGSSAD | binds
VKGRADVF | no binding

Variant | non-specific binding call
VKGRADVD | no binding
DKGGSAVV | no binding
YKGGSAAA | binds
FKGKGVGD | binds
VKGRGAGY | binds
VKGRGAGS | binds
YKGKGFGA | binds
YKGKGFGF | binds
YKGKGFGD | binds
YKGGSDVY | binds
FKGKGSAD | binds
AKGRADVY | no binding
YKGKSAWV | binds
YKGKSAWD | binds
YKGAASGV | binds
AKGGAAVY | no binding
SKERGSLV | no binding
YKGEDDVY | no binding
YKGGGSAV | binds
VKGRAFSV | no binding
VKEKGDLA | no binding
FKGEGSLY | no binding
FKGEGSLV | no binding
AKGKASSD | binds

Variant | non-specific binding call
VKEKGDVA | no binding
SKGKGSAA | binds
YKGEGYGV | binds
VKEKGDSA | no binding
YKGEGFSS | binds
YKGGSAGY | binds
YKGGSAGA | binds
YKGKGVGV | binds
VKGRGAAY | binds
AKGEDSVF | no binding
VKGKDVGY | binds
VKGGGYGA | binds
VKEKGYLV | no binding
DKGGSSLD | no binding
VKGKGSAA | binds
YKGKGSWD | binds
YKGKGSWA | binds
YKGGGALD | binds
FKGEGDAA | no binding
DKGGGDVA | no binding
VKGKGDVY | no binding
YKGGSSLD | binds
VKETSVLF | binds
FKGKGAVV | binds

Variant | non-specific binding call
FKGKGAVA | binds
DKGEGAAA | no binding
SKGENALY | no binding
VKGKGDWV | no binding
YKGKGFAA | binds
YKGEGDGV | no binding
VKGEGYGA | binds
DKGEGDGA | no binding
SKGKGAWY | binds
VKGRADSF | no binding
VKGRADSA | no binding
VKGRADSV | no binding
FKGEGFGS | binds
VKGASDWA | no binding
YKGEGDVV | no binding
VKEKGSLF | binds
SKGRGALA | binds
SKERGDAA | no binding
FKGEGAGV | no binding
VKGRASWS | no binding
VKGGSFGS | binds
FKGKGAAV | binds
FKGKGAAF | binds
YKGRDALD | binds
